Experimental data published in article PMC7135997, “Cardiac myosin regulatory light chain kinase modulates cardiac contractility by phosphorylating both myosin regulatory light chain and troponin I” (The Journal of Biological Chemistry, 2020).

Experiments:
[1] = target: T1, rat cardiac troponin I (rat, UniProt P23693 1-211); experiment: SEC-MALS; complex reconstituted from the three separately purified subunits mixed 1:1:1 in 6 mol/liter urea, dialysed, purified on Resource-Q; Superdex 200 5/150 GL in 50 mmol/liter Tris-HCl (pH 7.4), 5 mM MgCl2, 1 mmol/liter CaCl2, 100 mM NaCl, 100 mmol/liter tris(2-carboxyethyl)phosphine; also characterized by HPLC and ESI-MS; settings: both partners purified
T1 construct: cardiac troponin I, rat, cloned from a rat heart cDNA library into pET3a, codon-optimized; No tag is named; unphosphorylated recombinant protein; also called rcTnI; rat cTnI; source: E. coli BL21(DE3)-RIPL, inclusion bodies, purified (CM Sepharose in 6 mol/liter urea)
T1 sequence (P23693 whole entry): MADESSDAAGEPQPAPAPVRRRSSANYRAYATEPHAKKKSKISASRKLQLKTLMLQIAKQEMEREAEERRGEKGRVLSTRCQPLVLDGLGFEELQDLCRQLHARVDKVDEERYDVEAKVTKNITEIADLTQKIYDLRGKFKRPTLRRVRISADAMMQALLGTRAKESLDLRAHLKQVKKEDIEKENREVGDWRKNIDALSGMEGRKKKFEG

[2] = target: rat cardiac troponin C (rat, UniProt Q4PP99 1-161); experiment: as above; settings: both partners purified

B1: rat cardiac troponin T (natural protein)
chain: not shown
notes: cardiac troponin T, rat, cloned from a rat heart cDNA library into pET3a, codon-optimized; also called rat cTnT; rcTnT; source: E. coli BL21(DE3)-RIPL, soluble fraction, purified (ion exchange, similar method to rcTnI)
[1]
  stoichiometry N: 1
[2]
  stoichiometry N: 1
